Laboratory results: patent US20140295012A1, “LATENT HUMAN IMMUNODEFICIENCY VIRUS REACTIVATION” (priority 2011, published 2014)
*1 amine or outer side, *2 acyl side, *3 side chain or, on linkers, in order; H or OH if unused. Where a SMILES comes first, the peptide text is derived from it. Bridges are numbered along the chain shown (N, C = ends). Roman numbers before positions name the chains, in order. [ ]: non-standard residue; d: D form. Actinocin(9to1) = Cc1c2oc3c(C)ccc(C(=O)[*:1])c3nc-2c(C(=O)[*:2])c(N)c1=O; NMeV = CN[C@H](C(=O)O)C(C)C; Sar = CNCC(=O)O

B1: HRF: flagellin polypeptide from Massilia timonae (SEQ ID NO:10), used as bacterial culture supernatant (protein)
chain: MASVINTNVPSLNSQRNLSTSQAQLNTSIQRLSSGMRINSAKDDAAGLAISDRMNSQIKGMTQATRNANDGVSMAQTAEGALSSSGDILQRIRELAVQSSNSSNSASDRKALQTEVTQLSSELNRIANTTEFNGQKLMDGTLGTANFQVGANAGQLISMTGANFNTSVYGNNQIAGDAAKAAATTSAAATGAFTISGYLGTSAAINTTDADTAKTIAASINNVTGDTGVTATARTDSFLKSAGGAHTMSLASDNSGTGEAVDISFTVGDGGDTADDYAAAISAFNAQTAKTGVTAEYDAVEKGLKLTNSAGENISLTNKAGSADIDMDTYAADGALMASALTLEAGDVGVANGRVTMDSEKSFSVAEGTDTGFELADSSALKSVAKIDISDFEGAQEAIKVADAALSAVNSQRAEYGALQSRFESAISNLSSSTENLSASRSRIVDTDFAAETAKMTRGQILQQAGTSMLAQANSLPNGVLSLLRG

Legend:
Type in all cases: cell-based
[1] = tested on: latently HIV-1 infected EF7 cells; test: Priming of latent HIV-1 infection in EF7 T cells (converse sense integration); settings: 4 ng/ml, 18 hours pretreatment
Description: FIGS. 13A-B show the effect of dactinomycin on latent infection as a function of the orientation of integration relative to the direction of host-gene transcription. HIV-1 can integrate in the same transcriptional orientation as the host-gene or in the converse sense. Two latently HIV-1 infected T cell lines, which were determined to have HIV-1 integrated in the same sense orientation (CA5 cells) (FIG. 13A) and in the converse sense orientation (EF7 cells) (FIG. 13B) were used. For either cell line, the host-gene name, the position of integration and the chromosome number is given. For either T cell line, reactivation levels achieved by TNF-α treatment alone or by TNF-α stimulation following pretreatment with 4 ng/ml dactinomycin for 18 hours are shown. Reactivation levels were determined using flow cytometric analysis for GFP expression. The gray dotted line represents maximum achievable reactivation levels using PMA.
The sense of orientation of the integrated latent virus, relative to the transcriptional direction of the host-gene, was investigated to determine whether the orientation would influence the ability of dactinomycin to prime latent infection for reactivation. […]

[2] = tested on: latently HIV-1 infected monocytic THP89GFP cells; test: HIV-1 reactivation in latently infected monocytic THP89GFP cells
[3] = tested on: NF-κB dependent promoters in 293T cells; test: NF-κB dependent promoter constructs transfected into 293T cells (EGFP expression)
Description: FIGS. 6A-6C show HRF triggers suboptimal functional induction of NF-κB dependent gene expression. […] The HIV-1 reactivating kinetics were determined by stimulating CA5 T cells with optimal concentrations of HRF, phorbol 12-myristate 13-acetate (PMA) and tumor necrosis factor-α (TNF-α) and analyzing HIV-1 reactivation as a function of EGFP-expression over a period of 48 hours. Data for all agents are depicted as the percentage of EGFP-positive cells in the total cell population. […] To test the ability of HRF to mediate Tat-independent activation of the HIV-1 LTR, NOMI cells (HIV-1 reporter cell line with an integrated LTR-EGFP construct) were stimulated with increasing concentrations of PMA (0.01-10 ng/ml), TNF-α (0.003-30 μg/ml) and HRF supernatant (0.3-100 μl). The level of LTR-induction was then measured as EGFP-expression detectable after 24 hours as determined by flow cytometric analysis. Arrows indicate the concentrations at which the respective stimulus would have triggered full HIV-1 reactivation in the latently HIV-1 infected CA5 T cell line. […] 293T cells were transfected with several NF-κB dependent promoter constructs and then stimulated with either TNF-α (10 μg/ml) or HRF (25 μl). Promoter induction was measured as total EGFP expression. (NF-κB:pNF-κB-d2EGFP; LTR:HIV-1 LTR-GFP; IL-8:pIL-8 GFP; TNF:human TNF-GFP; MSCV:murine stem cell virus LTR driven GFP; no NF-κB responsive elements).
The utilized EGFP reporter virus HIV-1 NLENG1-IRES has been described elsewhere (Kutsch et al., J. Virol. 76:8776-86 (2002); Levy et al., Proc. Natl. Acad. Sci. USA 101:4204-9 (2004)). The reporter plasmid pNF-κB-d2EGFP was purchased from Clontech (Mountain View, Calif.). The LTR-GFP construct and the IL-8 reporter construct have been described earlier (Choi et al., Mol. Cell. Biol. 22:724-36 (2002)). The TNF-promoter construct was generated by cloning the human TNF-α promoter element defined by primer pair 5′-BglII; 5′-[…] […]-3′ (SEQ ID NO:2) and 3′-AgeI; 5′-[…] […]-3′ (SEQ ID NO:3) into pd2EGFP (Clontech). MSCV-GFP was generated by cloning the EGFP-gene into retroviral pMSCV-puro vector (Clontech).

NF-κB p50 = NF-κB p50 activity in nuclear extracts of latent CA5 T cells (TransAM NF-κB family ELISA)
Description: FIGS. 7A-7D are graphs showing the kinetics of HRF-mediated induction of NF-κB activity. Jurkat or latently HIV-1 infected CA5 T cells were stimulated with optimal concentrations of PMA and HRF, and cells were harvested at the indicated time points. Nuclear extracts were generated and (FIGS. 7A and 7C) NF-κB p50 activity and (FIGS. 7B and 7D) NF-κB p65 activity were determined using the TransAM™ NF-κB family ELISA kit (Active Motif; Carlsbad, Calif.).
Cells were grown in RPMI medium supplemented with 10% FBS and 1% PSG to approximately 5×10^5 cells per milliliter. Cells were centrifuged and resuspended in fresh pre-warmed medium. PMA, HRF and/or JNKiV were added immediately at the indicated concentrations. The final cell density for the assay was 1×10^6 cells per milliliter. The culture flasks were kept in a humidified CO2 incubator at 37° C. For each time point, a 1 ml cell suspension was removed and immediately centrifuged at full speed in a tabletop centrifuge for 30 seconds. […] The protein concentration of the extracts was determined by using the BCA protein assay Kit (ThermoFisher). […] The absorbance at 595 nm was determined using a 96 well plate reader (Synergy HT, BIO-Tek; Winooski, Vt.).
NF-κB activity in nuclear extracts was quantified using the TransAM™ NF-κB family ELISA kit from Active Motif, Inc. (Carlsbad, Calif.) according to the manufacturer's instructions.

NF-κB = NF-κB activity measured by GFP production in Jurkat T cells; settings: compared with Salmonella typhimurium flagellin

Molecule | priming effect for reactivation by TNF-α [1] | HIV-1 reactivation [2] | GFP expression driven by NF-κB responsive promoter constructs (IL-8, TNF-α, HIV-1 LTR, three consensus NF-κB sites) [3] | GFP expression of construct under control of murine stem cell virus LTR (no NF-κB responsive element) [3] | NF-κB p50 activity after the first 4 hours (NF-κB p50) | NF-κB activity and NF-κB driven gene expression (NF-κB)
Cc1c2oc3c(C)ccc(C(=O)N[C@@H]4C(=O)N[C@H](C(C)C)C(=O)N5CCC[C@H]5C(=O)N(C)CC(=O)N(C)[C@@H](C(C)C)C(=O)O[C@@H]4C)c3nc-2c(C(=O)N[C@@H]2C(=O)N[C@H](C(C)C)C(=O)N3CCC[C@H]3C(=O)N(C)CC(=O)N(C)[C@@H](C(C)C)C(=O)O[C@@H]2C)c(N)c1=O [dactinomycin] (I: T[dV]P[Sar][NMeV] / II: T[dV]P[Sar][NMeV]; ester I:1-I:C, II:1-II:C; linker I:N-II:N via Actinocin(9to1)) | exerted its priming effect in each integration scenario |  |  |  |  | 
B1 |  | reactivated latent HIV-1 infection | weak GFP expression | Neither TNF-α nor HRF influenced GFP expression | stabilizes at an elevated level | lower levels of NF-κB activity and NF-κB driven gene expression than flagellin from Salmonella typhimurium
